From patent publication EP4527849A1 (Universitätsmedizin der Johannes Gutenberg-Universität Mainz, dated 2025) come the findings set out here.

Test [1] addresses T1, human PD-L1 (Programmed death-ligand 1) (human, UniProt Q9NZQ7 19-290).
T1 construct: No signal peptide limits are stated; also called CD274; B7-H1
In words: IFNg-ELISPOT on 293T B2M/CIITA knockout cells transfected with full-length or single-domain PD-L1 constructs; binding inferred from recognition.

Another test has as its target T2, full-length murine PD-L1 (murine, UniProt Q9EP73 19-290).
T2 construct: whole, on cells; also called mPD-L1; murine homologue of PD-L1
Nature of the test: IFNg-ELISPOT; TCR-transduced T cells on 293T B2M/CIITA knockout cells transfected with full-length murine PD-L1.

The target of test [2] is T1, human PD-L1 (Programmed death-ligand 1). Nature of the test: IFNg-ELISPOT with TCR-transduced T cells and blocking anti-PD-L1 antibodies; binding inferred from recognition.

T2 sequence (Q9EP73 19-290): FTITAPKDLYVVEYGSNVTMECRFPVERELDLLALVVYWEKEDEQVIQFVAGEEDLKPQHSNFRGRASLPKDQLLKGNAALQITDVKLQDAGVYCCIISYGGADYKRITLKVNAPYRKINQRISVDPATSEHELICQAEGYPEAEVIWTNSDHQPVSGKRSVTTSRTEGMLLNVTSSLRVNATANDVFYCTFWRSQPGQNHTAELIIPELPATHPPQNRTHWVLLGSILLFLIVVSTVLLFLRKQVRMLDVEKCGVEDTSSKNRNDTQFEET
T1 sequence (Q9NZQ7 19-290 limits assumed): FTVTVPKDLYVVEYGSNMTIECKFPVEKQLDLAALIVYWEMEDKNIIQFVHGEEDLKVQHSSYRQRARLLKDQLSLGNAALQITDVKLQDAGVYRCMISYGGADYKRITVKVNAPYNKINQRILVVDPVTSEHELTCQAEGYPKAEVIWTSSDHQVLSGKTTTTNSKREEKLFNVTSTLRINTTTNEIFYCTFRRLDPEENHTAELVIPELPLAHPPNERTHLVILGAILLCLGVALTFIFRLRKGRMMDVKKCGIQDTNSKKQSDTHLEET

B1: chimerized TCR construct 11C/25 (TCR, V domains shown)
V domain 1: EAQVTQNPRYLITVTGKKLTVTCSQNMNHEYMSWYRQDPGLGLRQIYYSMNVEVTDKGDVPEGYKVSRKEKRNFPLILESPSPNQTSLYFCASSLSPAPPSIWSYNEQFFGPGTRLTVLE
V domain 2: AQSVTQLDSQVPVFEEAPVELRCNYSSSVSVYLFWYVQYPNQGLQLLLKYLSGSTLVKGINGFEAEFNKSQTSFHLRKPSVHISDTAEYFCAVSKLAGRRALTFGSGTRLQVQP
notes: In the assays the TCR stood as an alpha/beta heterodimer on transduced human T cells whose endogenous TCR was knocked out; also called cTCR 11C/25; TCR 11C/25
For the molecule B1, the binding result in test [1] is given as “binds”; in the test with full-length murine PD-L1, “no binding”.

B2: chimerized TCR construct 11C/34 (TCR, V domains shown)
V domain 1: EPEVTQTPSHQVTQMGQEVILRCVPISNHLYFYWYRQILGQKVEFLVSFYNNEISEKSEIFDDQFSVERPDGSNFTLKIRSTKLEDSAMYFCASSLRLGWIPGNEQFFGPGTRLTVLE
V domain 2: AQSVTQPDIHITVSEGASLELRCNYSYGATPYLFWYVQSPGQGLQLLLKYFSGDTLVQGIKGFEAEFKRSQSSFNLRKPSVHWSDAAEYFCAVGFMDSSYKLIFGSGTRLLVRP
notes: In the assays the TCR stood as an alpha/beta heterodimer on transduced human T cells whose endogenous TCR was knocked out; also called cTCR 11C/34; TCR 11C/34
Turning to B2, the binding result is on record as “binds” in test [2] and “no binding” with full-length murine PD-L1.
